The target of assay [1] is T1, protein containing the extracellular domain of mouse TREM2 fused to Fc (mouse, UniProt Q99NH8 19-171).
T1 construct: extracellular domain; also called Mouse TREM2-Fc; not shown: Fc
T1 sequence (looked up): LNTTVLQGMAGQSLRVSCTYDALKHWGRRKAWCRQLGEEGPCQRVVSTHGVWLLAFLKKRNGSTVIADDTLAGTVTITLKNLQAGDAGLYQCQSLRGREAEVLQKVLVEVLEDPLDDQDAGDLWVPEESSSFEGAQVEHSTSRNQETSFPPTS
The assay is described as follows: SPR (Biacore). From the text:
(§1) A Surface Plasmon Resonance (Biacore) assay was used to assess the binding of humanized CGX101 (hCGX101), an IgG4 antibody, to the extracellular domain of human TREM2 and to a protein containing the extracellular domain of mouse TREM2 fused to Fc.

In assay [2] the target is T2, extracellular domain (ECD) of human TREM2 (human, UniProt Q9NZC2 19-174).
T2 construct: also called Human TREM2-ECD; human TREM2-extracellular domain (ECD)
T2 sequence: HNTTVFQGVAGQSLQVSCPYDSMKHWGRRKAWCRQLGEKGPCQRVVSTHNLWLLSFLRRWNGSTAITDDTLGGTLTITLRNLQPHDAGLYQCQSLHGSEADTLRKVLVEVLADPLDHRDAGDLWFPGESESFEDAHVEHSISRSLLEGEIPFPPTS
The assay is described as follows: SPR (Biacore).
From the text: as §1

Values joined by “and” are separate entries in the source; they are usually repeats but may differ in a detail not shown here. Equal entries are not always repeated.

B1: humanized CGX101 (hCGX101), an IgG4 antibody (antibody, V domains shown)
VH: EVQLVQSGAEVKKPGESLKISCKGSGYTFTDYNIHWVRQMPGKGLEWMGYIYPKNGGTGYTQKFKSQVTISVDNSISTAYLQWSSLKASDTAMYYCARRTARASWFAFWGQGTLVTVSS
VL: DIVMTQSPATLSVSPGERATLSCKSSQSLLYSSNQKNYLAWYQQKPGQAPRVLIYWASTRESGIPARFSGSGSGTEFTLTISSLQSEDFAVYYCQQYYNYPFTFGQGTKLEIK
notes: also called hIgG4; huIgG4
In assay [1], B1 showed a Kd of 18.6 nM, a koff of 0.00106 s⁻¹ and a kon of 57000 M⁻¹ s⁻¹. For the same molecule, in assay [2], the Kd was 5.74 nM and 5.73 nM; the koff came to 0.000715 s⁻¹; the on-rate constant (kon) was 125000 M⁻¹ s⁻¹.

The values are drawn from US20260092111A1 (MOR RESEARCH APPLICATIONS, published 2026).
